Results from patent publication US20180271995A1, “A PROTEIN CONJUGATE COMPRISING MULTIPLE PHYSIOLOGICALLY ACTIVE POLYPEPTIDES AND AN IMMUNOGLOBULIN FC REGION” (HANMI PHARM. CO., LTD., priority 2015, published 2018).
Several values for one entry are separate records, joined by “and”; a condition that tells them apart may be missing. Equal values may be shown once.

Assays:
[1] = molecular target: human GLP-1 receptor (human) (UniProt P43220); assay: cell-based or functional assay
[2] = molecular target: human insulin receptor β (human) (UniProt P06213); assay: cell-based or functional assay
[3] = system: mouse-derived 3T3-L1 cell line differentiated into adipocytes; assay: Glucose uptake test in 3T3-L1 cells differentiated into adipocytes (GOPOD residual glucose); type: cell-based; settings: 3T3-L1 adipocytes, 24 hours; read-out: Glucose uptake (Insulin) EC50
Experimental: First, for analyzing the titer of insulin, a glucose uptake (or lipid synthesis ability) test was conducted using the mouse-derived 3T3-L1 cell line differentiated into adipocytes. […] The 3T3-L1 cell line was suspended in the medium for differentiation (DMEM containing 10% FBS), inoculated into a 48-well plate to a concentration of 5×10^4 cells/well, and cultured at 37° C. for 48 hours. […] The mixtures was added to each well in an amount of 250 μL/well after removing the existing medium.
For the glucose uptake test, the cells terminally differentiated into adipocytes were washed once with serum-free DMEM medium and serum-free DMEM medium was added into each well in an amount of 250 μL to induce serum depletion for 4 hours. […] Each of the thus-prepared samples was added to the cells in an amount of 250 μL, respectively, and cultured in a 5% CO2 incubator at 37° C. for 24 hours. For the measurement of the residual amount of glucose in the medium upon completion of cultivation, 200 μL of the medium was collected, diluted 5-fold with D-PBS, respectively, and subjected to GOPOD analysis (GOPOD Assay Kit, Megazyme, Cat. No. K-GLUC). The residual glucose concentration in the medium was calculated based on the absorbance of the standard glucose solution, and EC50 values for each of the samples with respect to glucose uptake ability was calculated and the result is shown in Table 9 below.

Row | cAMP assay EC50 [1] | IR-β phosphorylation EC50 [2] | Substance | EC50 [3]
1 | > 100 nM | > 1000 nM | Immunoglobulin Fc | –
2 | – | – | human insulin | 9 nM and 11 nM
